The results in this text go back to article PMC3790000, “The Extended Transmembrane Orai1 N-terminal (ETON) Region Combines Binding Interface and Gate for Orai1 Activation by STIM1*^([image sbox.jpg])^♦” (The Journal of Biological Chemistry, 2013).

In general, Kd refers to the concentration at which binding is half-saturated.

Some results are limits rather than exact numbers.

For the assay, the target named is T1, YFP-STIM1 233–485 (human, UniProt Q13586-1 233-485).
T1 construct: the YFP fluorescence is the read-out of the thermophoresis; also called STIM1 233–485 C-terminal fragment; slightly extended OASF fragment; source: HEK293, transfected, in lysate (supernatant after Nonidet P40 lysis)
T1 sequence (Q13586 233-485): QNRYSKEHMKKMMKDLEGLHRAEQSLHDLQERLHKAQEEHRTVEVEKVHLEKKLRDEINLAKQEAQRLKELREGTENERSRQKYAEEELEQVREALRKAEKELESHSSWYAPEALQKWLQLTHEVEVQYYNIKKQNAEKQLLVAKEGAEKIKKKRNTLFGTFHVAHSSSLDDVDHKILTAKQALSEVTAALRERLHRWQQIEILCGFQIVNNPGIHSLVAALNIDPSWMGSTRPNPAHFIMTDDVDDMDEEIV
In words: MST; monolith NT.115 (Nanotemper); YFP-STIM1 233–485 (or free YFP) in HEK293 cell lysate kept constant, Orai1 peptide varied, up to 16 dilutions, 5 min incubation, glass capillaries; curve fitted to a one-site binding model. The note with it: one partner purified.

B1: Orai1 aa70–91 L74E/W76E N-terminal peptide (peptide, UniProt Q96D31-1 70-91, looked up)
peptide: SMQAESERKLYLSRAKLKASSR
notes: also called Orai1 NT(aa70–91 L74E/W76E); source: synthetic peptide, bought: peptide 2.0
B1 gave a Kd of 406 ± 68 µM.

B2: Orai1 N-terminal peptide aa77–91 (peptide, UniProt Q96D31-1 77-91, looked up)
peptide: RKLYLSRAKLKASSR
notes: also called Orai1 NT(aa77–91); Orai1 aa77–91; source: synthetic peptide, bought: peptide 2.0
Molecule B2 yielded a Kd greater than 4700 µM.
